Measured values reported in paper doi:10.1101/2021.10.21.465316 (bioRxiv, 2021).

B1: dehydrodolichyl diphosphate synthase (DHDDS), residues 1-333 (enzyme)
chain: MSWIKEGELSLWERFCANIIKAGPMPKHIAFIMDGNRRYAKKCQVERQEGHSQGFNKLAETLRWCLNLGILEVTVYAFSIENFKRSKSEVDGLMDLARQKFSRLMEEKEKLQKHGVCIRVLGDLHLLPLDLQELIAQAVQATKNYNKCFLNVCFAYTSRHEISNAVREMAWGVEQGLLDPSDISESLLDKCLYTNRSPHPDILIRTSGEVRLSDFLLWQTSHSCLVFQPVLWPEYTFWNLFEAILQFQMNHSVLQKARDMYAEERKRQQLERDQATVTEQLLREGLQASGDAQLRRTRLHKLSARREERVQGFLQALELKRADWLARLGTASA

How the values were obtained:
[1] = molecular target: B1; experiment: crystal structure
crystal structure = molecular target: the molecule itself; experiment: crystal structure

| Binder | binding result [1] | binding result (crystal structure) |
| --- | --- | --- |
| Nogo B-receptor (NgBR) pseudo cis-prenyltransferase domain, residues 73-293, lacking residues 167-175 (domain or fragment) RGGSCLAAAHHRMRWRADGRSLEKLPVHMGLVITEVEQEPSFSDIASLVVWCMAVGISYISVYDHQGIFKRNNSRLMDEILKQQQELLGLDCSKDKDDQVLNCHLAVKVLSPEDGKADIVRAAQDFCQLVAQKQKRPTDLDVDTLASLLSSNGCPDPDLVLKFGPVDSTLGFLPWHIRLTEIVSLPSHLNISYEDFFSALRQYAACEQRLGK | binds |  |
| B1 |  | binds |
